Measurements published in publication PMC4877046, “TrmBL2 from Pyrococcus furiosus Interacts Both with Double-Stranded and Single-Stranded DNA” (PLoS ONE, 2016).

What was measured:
[1] = molecular target: T1, TrmBL2 (Pyrococcus furiosus, UniProt Q8U3H1 1-264); assay: magnetic tweezers (persistence length); conditions: half-coverage, Hill coefficient 3.0 +/- 0.33; EMSA: PBS, 10 nM DNA, 1 h, room temperature, 8% PAGE in PBS; magnetic tweezers: PBS pH 7.4, 5 mM NaN3, room temperature
T1 sequence: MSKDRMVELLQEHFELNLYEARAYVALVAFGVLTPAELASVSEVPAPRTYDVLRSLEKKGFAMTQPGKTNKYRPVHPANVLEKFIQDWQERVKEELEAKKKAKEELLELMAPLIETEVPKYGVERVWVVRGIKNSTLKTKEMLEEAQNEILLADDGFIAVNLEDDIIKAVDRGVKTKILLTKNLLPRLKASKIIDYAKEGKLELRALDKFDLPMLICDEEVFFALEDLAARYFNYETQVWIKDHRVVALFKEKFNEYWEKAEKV

[2] = molecular target: T1, TrmBL2; assay: EMSA; apparent Kd, Hill fit, Hill coefficient 2.9 +/- 0.4; Fig 6 legend gives 2.0 uM; EMSA: PBS, 10 nM DNA, 1 h, room temperature, 8% PAGE in PBS; magnetic tweezers: PBS pH 7.4, 5 mM NaN3, room temperature; conditions: protein: recombinant; chain copies: 2; label: 5'-Cy5
[3] = molecular target: T1, TrmBL2; assay: EMSA; apparent Kd, Hill fit, Hill coefficient 4.4 +/- 0.6; Fig 6 legend gives 1.0 uM; EMSA: PBS, 10 nM DNA, 1 h, room temperature, 8% PAGE in PBS; magnetic tweezers: PBS pH 7.4, 5 mM NaN3, room temperature; conditions: protein: recombinant; chain copies: 2; label: 5'-Cy5 on S1; blunt
[4] = molecular target: the molecule itself; assay: SEC; gel filtration on a 60 ml Superdex 200 column, 40 mM HEPES pH 7.5, 150 mM NaCl; last step of the purification

## dsDNA tether for magnetic tweezers
[1]
  K half: 300 nM

B1: 60mer ssDNA (ssDNA)
DNA: GATATAATATACCTATATCAATGGCCTCCCACGCATAAGCGCAGATACGTTCTGAGGGAA
[2]
  Kd: 2100 ± 100 nM

B2: 60mer dsDNA (dsDNA)
DNA 1: B1 DNA
DNA 2: TTCCCTCAGAACGTATCTGCGCTTATGCGTGGGAGGCCATTGATATAGGTATATTATATC
[3]
  Kd: 1070 ± 30 nM

B3: TrmBL2 from Pyrococcus furiosus (natural protein, UniProt Q8U3H1 1-264, looked up)
chain: T1 sequence
notes: TrmBL2 (30.6 kDa) from Pyrococcus furiosus; This E. coli material is dimeric by gel filtration; also called archaeal "TrmB-like" protein TrmBL2; source: E.coli BL21 (DE3), purified (heating to 80°C, Q-Sepharose, Superdex 200)
[4]
  stoichiometry N: 2
